The target of the assay is EVA-4 (UniProt P0C8E9). Briefly: SPR. On the technique in general: SPR reads the build-up and loss of mass on a sensor chip optically.
EVA-4, sequence (P0C8E9 24-127): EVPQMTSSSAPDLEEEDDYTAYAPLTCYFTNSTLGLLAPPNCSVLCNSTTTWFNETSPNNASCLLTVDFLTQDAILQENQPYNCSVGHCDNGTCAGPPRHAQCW

CCL13, Q99616 17-98 (ligand; biotin on the Avi-tag (Bir-A ligase); other documents disagree on this pair), sequence (Q99616 17-98): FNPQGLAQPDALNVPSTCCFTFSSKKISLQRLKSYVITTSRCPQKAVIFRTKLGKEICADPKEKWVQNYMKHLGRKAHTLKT

In general, Kd refers to a measure of binding affinity in units of concentration. Higher therefore signals lower affinity. For the substance “CCL13, Q99616 17-98 (ligand; biotin on the Avi-tag (Bir-A ligase); other documents disagree on this pair)”, the dissociation constant Kd is 253 nM.

The values above are taken from paper PMC9478924.
